Laboratory results: the Human Domainome abundance scans (Beltran et al. 2025)
± gives the uncertainty stated by the source.

B1: Triacylglycerol hydrolase DDHD2, residues 389 to 447; numbered along this chain, O94830 (parent)
chain: TLEEDLKKLQLSEFFDIFEKEKVDKEALALCTDRDLQEIGIPLGPRKKILNYFSTRKNS

Variants of: B1
Assay: abundance fitness (aPCA) (normalised: wild type 0, dead -1); higher = more abundant; growth selection in yeast, the domain comes from the species named
Details: Homo sapiens

Abundance fitness of substitutions, site by site:
A29: N 0.142 ± 0.099; I 0.012 ± 0.11; C -0.23 ± 0.086; V -0.401 ± 0.084; W -0.399 ± 0.09; H 0.06 ± 0.11; G -0.191 ± 0.074; T 0.032 ± 0.089; D -0.264 ± 0.12; R 0.011 ± 0.064; P 0.03 ± 0.091; F -0.066 ± 0.098; L -0.323 ± 0.071; S 0.106 ± 0.063; M -0.156 ± 0.11; E 0.005 ± 0.11
R34: K -0.087 ± 0.095; L -0.001 ± 0.063; H 0.085 ± 0.13; N 0.368 ± 0.089; Q 0.059 ± 0.1; C 0.011 ± 0.093; T 0.076 ± 0.082; M 0.32 ± 0.092; G 0.201 ± 0.065; Y 0.367 ± 0.093; A 0.216 ± 0.077; P -0.266 ± 0.1; S 0.074 ± 0.061; E 0.463 ± 0.084; F 0.174 ± 0.089; V 0.072 ± 0.07; W -0.051 ± 0.092; I -0.135 ± 0.13
A27: C 0.429 ± 0.094; E 0.231 ± 0.083; K 0.67 ± 0.085; N 0.263 ± 0.15; Y 0.6 ± 0.12; G 0.316 ± 0.065; M 0.639 ± 0.094; P -0.355 ± 0.13; T 0.057 ± 0.091; S -0.096 ± 0.076; Q 0.475 ± 0.09; W 0.841 ± 0.077; L -0.039 ± 0.071; I -0.045 ± 0.18; H 0.357 ± 0.14; F 0.708 ± 0.11; V 0.047 ± 0.074; D 0.437 ± 0.11
E38: P -0.888 ± 0.15; H -0.302 ± 0.1; I -0.294 ± 0.11; S -0.369 ± 0.07; G -0.319 ± 0.074; M 0.033 ± 0.097; F -0.468 ± 0.093; V -0.036 ± 0.065; C -0.129 ± 0.08; D 0.067 ± 0.077; T -0.051 ± 0.083; K 0.299 ± 0.094; Y -0.55 ± 0.11; A 0.181 ± 0.077; Q -0.161 ± 0.13
P42: Y -0.83 ± 0.19; K -0.737 ± 0.1; E -0.213 ± 0.072; F -1.17 ± 0.32; V -1.01 ± 0.098; M -0.649 ± 0.1; A -0.518 ± 0.081; N -0.35 ± 0.14; G -0.587 ± 0.073; R -0.872 ± 0.082; H -1.06 ± 0.33; L -0.958 ± 0.084; C -0.842 ± 0.17; T -0.839 ± 0.11; Q -0.393 ± 0.099; S -0.493 ± 0.081
L30: K 0.642 ± 0.083; G 0.452 ± 0.068; Y 0.164 ± 0.1; W 0.263 ± 0.081; I 0.513 ± 0.1; A 0.477 ± 0.078; R 0.581 ± 0.061; T 0.556 ± 0.081; E 0.49 ± 0.09; F -0.031 ± 0.096; S 0.489 ± 0.058; C 0.593 ± 0.078; H 0.377 ± 0.11; N 0.687 ± 0.086; P -0.177 ± 0.092; V 0.329 ± 0.075; Q 0.238 ± 0.12; D 0.423 ± 0.093; M 0.483 ± 0.085
D35: E 0.197 ± 0.073; V -0.818 ± 0.087; P -0.937 ± 0.14; M 0.215 ± 0.083; W -0.429 ± 0.1; R 0.053 ± 0.07; G -0.182 ± 0.074; L -0.762 ± 0.08; S -0.051 ± 0.07; C -0.278 ± 0.12; Q 0.271 ± 0.088; K 0.313 ± 0.081; I -1.13 ± 0.19; N -0.06 ± 0.12; T -0.264 ± 0.087; F -0.311 ± 0.12; A -0.309 ± 0.084; H 0.087 ± 0.13; Y 0.207 ± 0.12
G40: L -1.01 ± 0.098; W -1.23 ± 0.17; C -0.573 ± 0.14; H -0.502 ± 0.19; I -0.839 ± 0.17; R -0.411 ± 0.082; Q -0.216 ± 0.12; D -0.572 ± 0.11; A -0.65 ± 0.085; T -0.67 ± 0.1; N -0.253 ± 0.14; F -0.865 ± 0.24; V -0.689 ± 0.078; Y -1.2 ± 0.27; K -0.651 ± 0.16; E -0.556 ± 0.1
Q37: R -0.302 ± 0.073; M -0.024 ± 0.087; T -0.129 ± 0.089; W -0.37 ± 0.098; I 0.086 ± 0.1; H -0.229 ± 0.14; V -0.048 ± 0.067; E 0.241 ± 0.097; N -0.305 ± 0.14; S -0.178 ± 0.07; F -0.01 ± 0.12; Y -0.232 ± 0.13; P -0.996 ± 0.16; L -0.343 ± 0.074; G 0.049 ± 0.064
D33: M 0.124 ± 0.095; Y -0.498 ± 0.12; F -0.609 ± 0.12; W -0.51 ± 0.1; S -0.235 ± 0.07; N -0.367 ± 0.1; I -0.821 ± 0.16; V -0.693 ± 0.083; T -0.238 ± 0.093; R -0.576 ± 0.078; H -0.283 ± 0.12; L -0.339 ± 0.069; Q -0.446 ± 0.11; A -0.107 ± 0.075; E -0.058 ± 0.099; G -0.199 ± 0.069; P -0.659 ± 0.11; K -0.489 ± 0.1; C -0.675 ± 0.14
I41: V 0.003 ± 0.063; M 0.134 ± 0.08; Y -0.689 ± 0.2; N -0.837 ± 0.21; C -0.425 ± 0.12; Q -0.144 ± 0.1; A -0.433 ± 0.087; L 0.069 ± 0.062; G -0.323 ± 0.068; S -0.168 ± 0.08; E -0.13 ± 0.086; R -0.289 ± 0.066; D -0.384 ± 0.15; W -0.831 ± 0.11; P -0.417 ± 0.15; F -0.888 ± 0.25; H -0.31 ± 0.14
V23: T -0.231 ± 0.1; S -0.391 ± 0.083; W 0.593 ± 0.071; Y 0.451 ± 0.12
C31: G -0.294 ± 0.059; L 0.526 ± 0.065; A 0.343 ± 0.065; S 0.165 ± 0.063; K 0.489 ± 0.094; N -0.304 ± 0.11; E -0.366 ± 0.099; T 0.145 ± 0.1; I 0.035 ± 0.1; R -0.188 ± 0.071; Y 0.626 ± 0.11; P -0.196 ± 0.11; W 0.44 ± 0.08; M 0.977 ± 0.084; Q -0.145 ± 0.13; F 0.605 ± 0.072
T32: E 0.056 ± 0.091; K 0.083 ± 0.097; G -0.337 ± 0.069; D -0.163 ± 0.097; V -0.631 ± 0.082; C -0.494 ± 0.1; L -0.907 ± 0.1; A -0.226 ± 0.086; M -0.299 ± 0.1; I -0.924 ± 0.14; H -0.359 ± 0.14; P -0.589 ± 0.11; Q -0.251 ± 0.12; N -0.217 ± 0.13; Y -0.388 ± 0.12; F -1.18 ± 0.2; S -0.053 ± 0.072
L28: Y -0.634 ± 0.15; K -0.467 ± 0.1; T -0.342 ± 0.1; A -0.352 ± 0.083; P -0.504 ± 0.12; V 0.073 ± 0.07; E -0.129 ± 0.096; I -0.368 ± 0.11; Q -0.365 ± 0.12; S -0.215 ± 0.078; D -0.196 ± 0.12; W -0.383 ± 0.092; R -0.498 ± 0.074; C -0.325 ± 0.1; M -0.067 ± 0.11; G -0.386 ± 0.074; H -0.252 ± 0.14; N -0.404 ± 0.11
L43: F 0.313 ± 0.053; G 0.231 ± 0.052; M 0.298 ± 0.076; H 0.519 ± 0.058; C 0.47 ± 0.056; I 0.496 ± 0.057; E 0.725 ± 0.074
D24: S 0.466 ± 0.082; T 0.494 ± 0.11; Y -0.627 ± 0.2; L -0.881 ± 0.13; A 0.026 ± 0.1; V -0.707 ± 0.12; C -0.087 ± 0.16; E -0.023 ± 0.12; K -0.115 ± 0.097; F -0.033 ± 0.13; R -0.396 ± 0.096; P -0.561 ± 0.18; H -0.587 ± 0.26; I -1.2 ± 0.37; W -0.888 ± 0.2; M -0.286 ± 0.13; N 0.155 ± 0.12; Q -0.044 ± 0.15
E26: T -0.173 ± 0.11; M -0.072 ± 0.11; F -0.223 ± 0.14; Q -0.107 ± 0.1; D 0.002 ± 0.12; V -0.21 ± 0.08; N -0.109 ± 0.15; G 0.27 ± 0.063; L -0.383 ± 0.071; I -0.219 ± 0.16; R 0.137 ± 0.064; K 0.481 ± 0.088; H 0.153 ± 0.13; A -0.052 ± 0.086; W -0.086 ± 0.084
I39: A -0.204 ± 0.074; R -0.008 ± 0.065; S -0.364 ± 0.078; M 0.764 ± 0.072; K 0.196 ± 0.087; F 0.448 ± 0.12; L 0.176 ± 0.064; Y 0.548 ± 0.1; N -0.249 ± 0.18; T -0.336 ± 0.089; G -0.261 ± 0.079; W 0.613 ± 0.072; C -0.411 ± 0.12; Q -0.146 ± 0.086; H -0.341 ± 0.19; V -0.052 ± 0.07; D -0.3 ± 0.12
L36: C -0.363 ± 0.11; T -0.298 ± 0.093; R -0.434 ± 0.072; Y -0.765 ± 0.14; S -0.293 ± 0.07; N -0.267 ± 0.098; I -0.465 ± 0.11; G -0.322 ± 0.066; F -0.797 ± 0.15; D -0.565 ± 0.13; H -0.352 ± 0.17; P -0.473 ± 0.12; K -0.06 ± 0.086; M -0.164 ± 0.08; E -0.363 ± 0.1; V -0.567 ± 0.073; Q -0.448 ± 0.12
K25: F -0.078 ± 0.14; D -0.027 ± 0.1; W -0.329 ± 0.086; H 0.159 ± 0.15; S -0.088 ± 0.075; I -0.041 ± 0.14; G 0.083 ± 0.059; A -0.05 ± 0.086; T -0.302 ± 0.1; M 0.086 ± 0.096; Q -0.285 ± 0.097; V 0.027 ± 0.07; R -0.053 ± 0.06; L 0.03 ± 0.072; N -0.494 ± 0.16; P -0.048 ± 0.11; E 0.293 ± 0.08
